Assay [1] addresses CD70-APC (UniProt P32970). Briefly: FACS binding. On the technique in general: In flow cytometry, cells or beads pass a laser one at a time.
Assay [2] concerns the target CD70 on CD70+ skrc-59 ccRCC cells (UniProt P32970). As to the kind of experiment: FACS binding. As to conditions: Fc fusion.

Sequence of CD70 on CD70+ skrc-59 ccRCC cells (P32970 whole entry, the tested form may be a part): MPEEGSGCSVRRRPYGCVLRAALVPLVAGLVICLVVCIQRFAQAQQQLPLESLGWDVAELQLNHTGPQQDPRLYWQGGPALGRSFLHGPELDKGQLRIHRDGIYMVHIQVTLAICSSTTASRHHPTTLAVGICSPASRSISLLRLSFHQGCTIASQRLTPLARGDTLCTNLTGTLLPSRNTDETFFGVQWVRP
Sequence of CD70-APC (P32970 39-193): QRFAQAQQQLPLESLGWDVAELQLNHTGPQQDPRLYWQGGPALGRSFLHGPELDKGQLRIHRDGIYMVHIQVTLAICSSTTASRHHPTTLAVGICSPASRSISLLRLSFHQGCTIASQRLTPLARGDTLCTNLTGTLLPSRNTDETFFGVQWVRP

Consider CD27, for which the EC50 in assay [1] came to 0.917 µg/mL.
With “anti-CD70 minibody #7 (from UniProt P01721 20-117)”, in assay [2], the EC50 was found to be 0.114 µg/mL.

By EC50 is commonly meant the concentration needed to bring the measured effect to its halfway point. Read a high EC50 as a less potent agent.
